What was measured:
ssmm1_human SSMEM1 = target: T1, ssmm1_human SSMEM1 (UniProt Q8WWF3)
T1 sequence: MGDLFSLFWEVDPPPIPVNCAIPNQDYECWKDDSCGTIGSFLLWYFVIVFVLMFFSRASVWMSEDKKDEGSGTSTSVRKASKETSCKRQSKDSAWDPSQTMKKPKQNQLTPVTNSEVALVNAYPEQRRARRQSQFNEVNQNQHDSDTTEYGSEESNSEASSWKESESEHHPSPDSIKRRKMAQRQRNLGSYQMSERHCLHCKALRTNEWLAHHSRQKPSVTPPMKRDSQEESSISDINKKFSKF

cxa5_human GJA5 = cxa5_human GJA5 (UniProt P36382)
comt_human COMT = comt_human COMT (UniProt P21964)
cld7_human CLDN7 = target: T2, cld7_human CLDN7 (UniProt O95471)
T2 sequence: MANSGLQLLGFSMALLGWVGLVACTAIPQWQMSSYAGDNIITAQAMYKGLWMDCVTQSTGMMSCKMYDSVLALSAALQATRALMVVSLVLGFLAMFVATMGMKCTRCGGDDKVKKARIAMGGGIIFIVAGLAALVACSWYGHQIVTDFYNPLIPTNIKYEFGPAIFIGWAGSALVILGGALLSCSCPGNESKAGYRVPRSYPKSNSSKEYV

tmem9_human TMEM9 = target: T3, tmem9_human TMEM9 (UniProt Q9P0T7)
T3 sequence: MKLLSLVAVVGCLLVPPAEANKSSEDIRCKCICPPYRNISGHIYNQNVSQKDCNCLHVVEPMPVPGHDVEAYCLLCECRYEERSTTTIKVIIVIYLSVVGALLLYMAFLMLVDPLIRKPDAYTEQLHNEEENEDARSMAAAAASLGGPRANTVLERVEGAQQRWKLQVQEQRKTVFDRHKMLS

lrc4c_human LRRC4C = target: T4, lrc4c_human LRRC4C (UniProt Q9HCJ2)
T4 sequence: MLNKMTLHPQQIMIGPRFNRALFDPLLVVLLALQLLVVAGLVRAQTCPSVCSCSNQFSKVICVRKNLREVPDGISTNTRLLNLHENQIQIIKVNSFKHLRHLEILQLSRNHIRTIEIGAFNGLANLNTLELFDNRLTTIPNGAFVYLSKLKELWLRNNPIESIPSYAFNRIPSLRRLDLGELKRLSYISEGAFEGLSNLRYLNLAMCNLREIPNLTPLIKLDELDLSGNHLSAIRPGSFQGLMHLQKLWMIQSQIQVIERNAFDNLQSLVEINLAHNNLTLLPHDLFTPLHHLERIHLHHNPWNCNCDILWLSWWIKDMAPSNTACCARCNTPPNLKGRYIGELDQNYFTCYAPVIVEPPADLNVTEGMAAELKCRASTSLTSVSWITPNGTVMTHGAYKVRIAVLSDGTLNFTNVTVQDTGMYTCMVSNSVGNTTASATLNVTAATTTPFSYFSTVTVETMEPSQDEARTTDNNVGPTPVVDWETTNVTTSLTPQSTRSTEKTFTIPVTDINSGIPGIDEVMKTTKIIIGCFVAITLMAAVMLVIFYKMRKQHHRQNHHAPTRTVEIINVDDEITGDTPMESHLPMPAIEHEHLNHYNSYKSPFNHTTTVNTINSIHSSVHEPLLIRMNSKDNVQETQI

cxa8_human GJA8 = cxa8_human GJA8 (UniProt P48165)
jam1_human F11R = target: T5, jam1_human F11R (UniProt Q9Y624)
T5 sequence: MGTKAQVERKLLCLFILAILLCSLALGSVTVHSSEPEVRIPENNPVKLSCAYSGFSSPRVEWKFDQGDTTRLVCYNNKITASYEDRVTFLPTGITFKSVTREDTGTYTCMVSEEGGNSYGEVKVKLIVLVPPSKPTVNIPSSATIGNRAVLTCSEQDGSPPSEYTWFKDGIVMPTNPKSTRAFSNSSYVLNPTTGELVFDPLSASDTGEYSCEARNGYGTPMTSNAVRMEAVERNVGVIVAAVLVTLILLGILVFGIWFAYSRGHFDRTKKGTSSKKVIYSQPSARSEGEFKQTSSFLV

FAM209A = target: T6, FAM209A (UniProt Q5JX71)
T6 sequence: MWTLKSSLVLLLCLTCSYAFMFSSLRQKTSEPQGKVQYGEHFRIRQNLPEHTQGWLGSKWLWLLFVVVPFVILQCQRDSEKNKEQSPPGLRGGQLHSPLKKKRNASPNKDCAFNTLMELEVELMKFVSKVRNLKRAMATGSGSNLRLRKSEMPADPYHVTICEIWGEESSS

- effect of a mutation on the interaction (ssmm1_human SSMEM1): with no effect
- effect of a mutation on the interaction (cxa5_human GJA5): with no effect
- effect of a mutation on the interaction (comt_human COMT): with no effect
- effect of a mutation on the interaction (cld7_human CLDN7): disrupting interaction strength
- effect of a mutation on the interaction (tmem9_human TMEM9): with no effect
- effect of a mutation on the interaction (lrc4c_human LRRC4C): with no effect
- effect of a mutation on the interaction (cxa8_human GJA8): with no effect
- effect of a mutation on the interaction (jam1_human F11R): disrupting interaction strength
- effect of a mutation on the interaction (FAM209A): with no effect
Substance: Acyltransferase PGAP2 (Homo sapiens) (from UniProt Q9UHJ9-5) T160I

From IntAct's records for PubMed 32296183
